Measured values taken from the supplement of paper PMC9112550, “Optimization of the antimicrobial peptide Bac7 by deep mutational scanning” (BMC Biology, 2022).

What follows are sequences tested on Escherichia coli TOP10 (assay: shrunken log2 fold change of peptide-encoding DNA abundance (4.5 h post-induction vs induction); higher = less antimicrobial activity (less host growth inhibition)). Conditions: time post-induction: 4.5 h; library: site-saturation at positions 5, 18, 19, 20.
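Note: peptides expressed intracellularly from a pBAD plasmid library in pooled LB shake-flask culture, induced with 0.3% L-arabinose, DNA abundance read by NGS, three biological replicates, DESeq2 with apeglm shrinkage.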

Row | Sequence | shrunken log2 fold change
1 | RRIRIRPPRLPRPRPRPQGSPRP | -0.0316
2 | RRIRIRPPRLPRPRPRPQHNPRP | -0.735
3 | RRIRIRPPRLPRPRPRPQIDPRP | -2.56
4 | RRIRIRPPRLPRPRPRPQIIPRP | -0.213
5 | RRIRIRPPRLPRPRPRPQLDPRP | -0.138
6 | RRIRIRPPRLPRPRPRPQLVPRP | -0.163
7 | RRIRIRPPRLPRPRPRPQMCPRP | 0.0648
8 | RRIRIRPPRLPRPRPRPQMDPRP | -0.258
9 | RRIRIRPPRLPRPRPRPQMIPRP | -0.241
10 | RRIRIRPPRLPRPRPRPQMQPRP | -0.325
11 | RRIRIRPPRLPRPRPRPQMTPRP | -0.733
12 | RRIRIRPPRLPRPRPRPQNKPRP | -0.668
13 | RRIRIRPPRLPRPRPRPQNWPRP | -0.517
14 | RRIRIRPPRLPRPRPRPQPEPRP | 0.0576
15 | RRIRIRPPRLPRPRPRPQPHPRP | -0.00842
16 | RRIRIRPPRLPRPRPRPQPNPRP | -0.267
17 | RRIRIRPPRLPRPRPRPQSFPRP | 0.0784
18 | RRIRIRPPRLPRPRPRPQSSPRP | 0.00983
19 | RRIRIRPPRLPRPRPRPQVEPRP | -0.127
20 | RRIRIRPPRLPRPRPRPQWAPRP | 0.0405
21 | RRIRIRPPRLPRPRPRPQWPPRP | 0.238
22 | RRIRIRPPRLPRPRPRPRCHPRP | -0.466
23 | RRIRIRPPRLPRPRPRPRDLPRP | 0.067
24 | RRIRIRPPRLPRPRPRPRGEPRP | 0.0673
25 | RRIRIRPPRLPRPRPRPRGKPRP | 0.086

Row | Sequence | shrunken log2 fold change
26 | RRIRIRPPRLPRPRPRPRGPPRP | 0.81
27 | RRIRIRPPRLPRPRPRPRKLPRP | -0.529
28 | RRIRIRPPRLPRPRPRPRMFPRP | -0.125
29 | RRIRIRPPRLPRPRPRPRMLPRP | -0.177
30 | RRIRIRPPRLPRPRPRPRMYPRP | -0.33
31 | RRIRIRPPRLPRPRPRPRPFPRP | -0.253
32 | RRIRIRPPRLPRPRPRPRPVPRP | 0.371
33 | RRIRIRPPRLPRPRPRPRQVPRP | 0.0368
34 | RRIRIRPPRLPRPRPRPRRPPRP | 0.233
35 | RRIRIRPPRLPRPRPRPRRTPRP | -0.0386
36 | RRIRIRPPRLPRPRPRPRTIPRP | -0.141
37 | RRIRIRPPRLPRPRPRPRTWPRP | -0.0123
38 | RRIRIRPPRLPRPRPRPRYVPRP | -0.45
39 | RRIRIRPPRLPRPRPRPSAPPRP | -0.00138
40 | RRIRIRPPRLPRPRPRPSAQPRP | -0.0807
41 | RRIRIRPPRLPRPRPRPSCAPRP | -0.249
42 | RRIRIRPPRLPRPRPRPSDTPRP | 0.00546
43 | RRIRIRPPRLPRPRPRPSDVPRP | -0.838
44 | RRIRIRPPRLPRPRPRPSEYPRP | -0.0435
45 | RRIRIRPPRLPRPRPRPSFGPRP | -0.389
46 | RRIRIRPPRLPRPRPRPSGEPRP | -0.246
47 | RRIRIRPPRLPRPRPRPSGKPRP | -0.146
48 | RRIRIRPPRLPRPRPRPSGSPRP | -0.17
49 | RRIRIRPPRLPRPRPRPSGYPRP | 0.00435
50 | RRIRIRPPRLPRPRPRPSHWPRP | -0.0355

Row | Sequence | shrunken log2 fold change
51 | RRIRIRPPRLPRPRPRPSKFPRP | -0.245
52 | RRIRIRPPRLPRPRPRPSLLPRP | -0.374
53 | RRIRIRPPRLPRPRPRPSLNPRP | -0.595
54 | RRIRIRPPRLPRPRPRPSLSPRP | -0.692
55 | RRIRIRPPRLPRPRPRPSNIPRP | -0.207
56 | RRIRIRPPRLPRPRPRPSNKPRP | -1.01
57 | RRIRIRPPRLPRPRPRPSNVPRP | -0.683
58 | RRIRIRPPRLPRPRPRPSPDPRP | 0.127
59 | RRIRIRPPRLPRPRPRPSPNPRP | -0.735
60 | RRIRIRPPRLPRPRPRPSQGPRP | -0.0729
61 | RRIRIRPPRLPRPRPRPSSNPRP | -0.313
62 | RRIRIRPPRLPRPRPRPSTNPRP | -0.573
63 | RRIRIRPPRLPRPRPRPSTSPRP | -0.492
64 | RRIRIRPPRLPRPRPRPSWCPRP | -0.532
65 | RRIRIRPPRLPRPRPRPSWEPRP | -0.621
66 | RRIRIRPPRLPRPRPRPSWYPRP | -0.604
67 | RRIRIRPPRLPRPRPRPSYFPRP | -0.83
68 | RRIRIRPPRLPRPRPRPSYQPRP | -1.32
69 | RRIRIRPPRLPRPRPRPTAKPRP | -0.184
70 | RRIRIRPPRLPRPRPRPTALPRP | 0.0424
71 | RRIRIRPPRLPRPRPRPTAVPRP | 0.028
72 | RRIRIRPPRLPRPRPRPTCIPRP | -0.193
73 | RRIRIRPPRLPRPRPRPTDIPRP | -0.359
74 | RRIRIRPPRLPRPRPRPTDLPRP | -0.289
75 | RRIRIRPPRLPRPRPRPTDTPRP | -1.86
